Columns and labels:
Test in all cases: BIAcore SPR, koff against wild-type Fc
[1] = molecular target: CD16A with Val at position 158 (human) (UniProt P08637)
CD32A^H = CD32A^H (UniProt P12318)
CD32B (FcγRII-B) = CD32B (FcγRII-B) (UniProt P31994)
[2] = molecular target: CD16A with Phe at position 158 (human) (UniProt P08637)
CD16A with Phe at position 158 (human), sequence (P08637 17-208 limits assumed): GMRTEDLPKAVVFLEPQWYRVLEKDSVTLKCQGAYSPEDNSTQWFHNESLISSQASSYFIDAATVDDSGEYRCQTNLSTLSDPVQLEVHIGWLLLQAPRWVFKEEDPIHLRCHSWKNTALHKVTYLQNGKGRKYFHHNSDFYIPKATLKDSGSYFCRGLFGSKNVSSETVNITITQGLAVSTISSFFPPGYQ

CD32A^H, sequence (P12318 34-217 limits assumed): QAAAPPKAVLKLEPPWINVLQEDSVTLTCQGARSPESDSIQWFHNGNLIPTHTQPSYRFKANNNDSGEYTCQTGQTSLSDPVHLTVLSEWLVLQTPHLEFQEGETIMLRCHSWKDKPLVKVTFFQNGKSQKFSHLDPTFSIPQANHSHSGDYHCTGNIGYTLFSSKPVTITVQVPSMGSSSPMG
CD32B (FcγRII-B), sequence (P31994 43-217 limits assumed): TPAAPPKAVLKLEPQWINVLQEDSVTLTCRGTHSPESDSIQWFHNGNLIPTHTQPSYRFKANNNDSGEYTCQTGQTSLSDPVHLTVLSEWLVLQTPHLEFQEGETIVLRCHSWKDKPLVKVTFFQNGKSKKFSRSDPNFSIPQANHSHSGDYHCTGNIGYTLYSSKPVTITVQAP
CD16A with Val at position 158 (human), sequence (P08637 17-208 F176V limits assumed): as the sequence (P08637 17-208 limits assumed) above, with F160V counted along it

Substance | WT koff/mutant koff [1] | WT koff/mutant koff (CD32A^H) | WT koff/mutant koff (CD32B (FcγRII-B)) | WT koff/mutant koff [2]
Fc mutant 7 (A330V) | 0.6 | 0.4 | 0.3 | 1.2
Fc mutant 5 (Y300L) |  | 2.9 | 1.2 | 1.2
Fc mutant 3 (R292P) | 2.4 | 0.7 | 0.3 | 1.6
Fc mutant 8 (P396L) | 1.3 | 1.6 | 2.6 | 
Fc mutant 12 (F243L, R292P, Y300L) | 7.4 | 1 | 0.6 | 4.6
Fc mutant 2 (D270E) | 1.3 | 2.2 | 0.4 | 
Fc mutant 13 (F243L, R292P, V305I) | 2.6 | 0.2 | 0.1 | 1.4
Fc mutant 16 (F243L, R292P, Y300L, P396L) | 10.1 | 1.7 | 1.1 | 5.6
Fc mutant 10 (F243L, R292P) | 4 | 0.5 | 0.2 | 
Fc mutant 1 (F243L) | 4.8 | 0.6 | 0.8 | 
Fc mutant 11 (R292P, V305I) |  | 0.8 | 0.4 | 
Fc mutant 4 (S298N) |  |  | 0.2 | 
Fc mutant 18 (F243L, R292P, Y300L, V305I, P396L) | 10.1 | 3.2 | 1.4 | 8.3
Fc mutant 9 (F243L, P396L) |  | 1.5 | 1.6 | 
Fc mutant 17 (F243L, R292P, V305I, P396L) | 4 | 0.8 | 0.4 | 2.3
Fc mutant 6 (V305I) | 0.9 | 1.3 | 1.2 | 0.6
Fc mutant 14 (F243L, R292P, P396L) | 6.3 | 1.4 | 0.4 | 
Fc mutant 15 (R292P, V305I, P396L) | 1.9 | 1.5 | 0.9 | 1.9
